The text below walks through data of PMC12441119 (Cell Discovery, 2025).

Residue numbers refer to the chain shown, from its start. Names may count otherwise.

The chains are these.
T1: HOIP (residues 480–1072) (UniProt Q96EP0 480-1072)
T1 construct: source: E. coli BL21 (DE3), purified (glutathione resin, SEC)
T1 sequence (looked up): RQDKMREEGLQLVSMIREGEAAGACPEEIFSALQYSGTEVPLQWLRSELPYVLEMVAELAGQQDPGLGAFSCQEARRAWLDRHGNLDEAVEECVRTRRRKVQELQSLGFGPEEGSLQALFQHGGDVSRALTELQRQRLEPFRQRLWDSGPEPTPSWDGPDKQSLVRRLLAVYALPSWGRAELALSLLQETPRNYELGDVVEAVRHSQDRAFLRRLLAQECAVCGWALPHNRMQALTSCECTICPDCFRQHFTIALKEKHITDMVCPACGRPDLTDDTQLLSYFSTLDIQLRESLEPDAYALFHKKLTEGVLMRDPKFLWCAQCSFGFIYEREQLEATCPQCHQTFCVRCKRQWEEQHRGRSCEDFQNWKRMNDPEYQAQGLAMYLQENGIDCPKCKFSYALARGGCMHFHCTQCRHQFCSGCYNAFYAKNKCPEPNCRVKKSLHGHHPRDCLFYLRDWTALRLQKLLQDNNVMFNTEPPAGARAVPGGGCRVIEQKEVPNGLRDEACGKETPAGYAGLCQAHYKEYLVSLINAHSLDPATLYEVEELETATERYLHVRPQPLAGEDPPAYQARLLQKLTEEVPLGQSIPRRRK

B1: HOIP RING1 (residues 697–793) T731A (domain or fragment, UniProt Q96EP0 697-793, looked up)
chain: QECAVCGWALPHNRMQALTSCECTICPDCFRQHFAIALKEKHITDMVCPACGRPDLTDDTQLLSYFSTLDIQLRESLEPDAYALFHKKLTEGVLMRD
notes: source: E. coli BL21 (DE3), purified
B2: STK4 (residues 11–326) K59R (domain or fragment, human, UniProt Q13043 11-326, looked up)
chain: RRQLKKLDEDSLTKQPEEVFDVLEKLGEGSYGSVYKAIHKETGQIVAIRQVPVESDLQEIIKEISIMQQCDSPHVVKYYGSYFKNTDLWIVMEYCGAGSVSDIIRLRNKTLTEDEIATILQSTLKGLEYLHFMRKIHRDIKAGNILLNTEGHAKLADFGVAGQLTDTMAKRNTVIGTPFWMAPEVIQEIGYNCVADIWSLGITAIEMAEGKPPYADIHPMRAIFMIPTNPPPTFRKPELWSDNFTDFVKQCLVKSPEQRATATQLLQHPFVRSAKGVSILRDLINEAMDVKLKRQESQQREVDQDDEENSEEDEMD
notes: Monomer-dimer equilibrium in solution; dimer in the crystal; also called STK4 KD; source: E. coli BL21 (DE3), purified (Ni-NTA, SEC)
B3: HOIP (residues 697–1072) S1066E (domain or fragment, UniProt Q96EP0 697-1072, looked up)
chain: QECAVCGWALPHNRMQALTSCECTICPDCFRQHFTIALKEKHITDMVCPACGRPDLTDDTQLLSYFSTLDIQLRESLEPDAYALFHKKLTEGVLMRDPKFLWCAQCSFGFIYEREQLEATCPQCHQTFCVRCKRQWEEQHRGRSCEDFQNWKRMNDPEYQAQGLAMYLQENGIDCPKCKFSYALARGGCMHFHCTQCRHQFCSGCYNAFYAKNKCPEPNCRVKKSLHGHHPRDCLFYLRDWTALRLQKLLQDNNVMFNTEPPAGARAVPGGGCRVIEQKEVPNGLRDEACGKETPAGYAGLCQAHYKEYLVSLINAHSLDPATLYEVEELETATERYLHVRPQPLAGEDPPAYQARLLQKLTEEVPLGQEIPRRRK
notes: also called phosphomimic S1066E mutant; source: E. coli BL21 (DE3), purified
B4: HOIP (residues 697–1072) (domain or fragment, UniProt Q96EP0 697-1072, looked up)
chain: B3 chain with E370S
notes: also called RING1-IBR-RING2-LDD; HOIP RBR-LDD; source: E. coli BL21 (DE3), purified (glutathione resin, SEC)
B5: STK4 (residues 1–487) K59R (enzyme, human, UniProt Q13043 1-487, looked up)
chain: METVQLRNPPRRQLKKLDEDSLTKQPEEVFDVLEKLGEGSYGSVYKAIHKETGQIVAIRQVPVESDLQEIIKEISIMQQCDSPHVVKYYGSYFKNTDLWIVMEYCGAGSVSDIIRLRNKTLTEDEIATILQSTLKGLEYLHFMRKIHRDIKAGNILLNTEGHAKLADFGVAGQLTDTMAKRNTVIGTPFWMAPEVIQEIGYNCVADIWSLGITAIEMAEGKPPYADIHPMRAIFMIPTNPPPTFRKPELWSDNFTDFVKQCLVKSPEQRATATQLLQHPFVRSAKGVSILRDLINEAMDVKLKRQESQQREVDQDDEENSEEDEMDSGTMVRAVGDEMGTVRVASTMTDGANTMIEHDDTLPSQLGTMVINAEDEEEEGTMKRRDETMQPAKPSFLEYFEQKEKENQINSFGKSVPGPLKNSSDWKIPQDGDYEFLKSWTVEDLQKRLLALDPMMEQEIEEIRQKYQSKRQPILDAIEAKKRRQQNF
notes: The tag could be cut by HRV 3C protease 'if desired'; also called kinase-dead full-length STK4; MST1; source: E. coli BL21 (DE3), purified (Ni-NTA, SEC)

The target in series [1] is T2, UBE2L3 (human, UniProt P68036 1-154).
T2 construct: UBE2L3 (E2), human; source: E. coli, purified
T2 sequence (P68036 whole entry): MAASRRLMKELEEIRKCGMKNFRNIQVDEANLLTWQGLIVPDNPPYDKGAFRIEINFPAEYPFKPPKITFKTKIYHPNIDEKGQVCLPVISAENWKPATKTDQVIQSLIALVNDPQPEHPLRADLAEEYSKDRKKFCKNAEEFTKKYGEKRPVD
Nature of the series: SEC; each protein alone and the mixture at matched concentrations on Superdex 200 Increase 10/300 GL or Superdex 75 Increase 10/300 GL; a forward shift or increase of the peak read qualitatively; fractions on SDS-PAGE (Fig. 1c: 20 μM HOIP RING2-LDD, 30 μM STK4 KD, Superdex 75 Increase). Particulars: both partners purified.

Series [2] deals with the molecule itself. Nature of the series: AUC; sedimentation velocity, 42,000 rpm, 20 °C, c(s) distribution (SEDFIT); mixtures of HOIP RING2-LDD with STK4 KD at molar ratios 1:1 or 1:5.
For series [3], the target named is T3, linear di-Ub (M1-2Ub) (UniProt P0CG48 1-76; P0CG48 1-76).
T3 construct: ubiquitin, unit 1 of 2, units joined head to tail by peptide bonds (M1-linked); ubiquitin, unit 2 of 2; source: E. coli BL21 (DE3), purified
Description: SEC; each protein alone and the mixture at matched concentrations on Superdex 200 Increase 10/300 GL or Superdex 75 Increase 10/300 GL; a forward shift or increase of the peak read qualitatively; fractions on SDS-PAGE (Fig. 1c: 20 μM HOIP RING2-LDD, 30 μM STK4 KD, Superdex 75 Increase). Particulars: both partners purified. (In gel filtration, larger molecules generally elute earlier.)

The target of series [4] is T4, linear tetra-Ub (M1-4Ub) (UniProt P0CG48 1-76; P0CG48 1-76; P0CG48 1-76; P0CG48 1-76).
T4 construct: ubiquitin, unit 1 of 4, units joined head to tail by peptide bonds (M1-linked); ubiquitin, unit 2 of 4; ubiquitin, unit 3 of 4; ubiquitin, unit 4 of 4; source: E. coli BL21 (DE3), purified
The series is described as above. As to conditions: both partners purified.

Series [5] has as its target B5. Nature of the series: ITC; MicroCal PEAQ-ITC, 25 °C; 20 mM Tris-HCl pH 7.5, 100 mM NaCl, 1 mM DTT; ~50 μM in the cell, ~500 μM in the syringe; one-site binding model. As to conditions: both partners purified. On the technique in general: ITC needs no label: the signal is the heat of the interaction.
Series [6] has as its target T1, HOIP (residues 480–1072). Nature of the series: SEC; each protein alone and the mixture at matched concentrations on Superdex 200 Increase 10/300 GL or Superdex 75 Increase 10/300 GL; a forward shift or increase of the peak read qualitatively; fractions on SDS-PAGE (Fig. 1c: 20 μM HOIP RING2-LDD, 30 μM STK4 KD, Superdex 75 Increase). As to conditions: both partners purified.

Consider B1, for which the binding result in series [1] is reported as “binds”. B2: the binding result in series [2] is on record as “binds”.

B3: the binding result in series [3] and in series [4] was “binds” each time. As a reminder, the Kd is a measure of binding affinity in units of concentration. A higher Kd goes with weaker binding. For the molecule B4, the Kd in series [5] was around 102 µM.

B5: the binding result in series [6] is listed as “binds”.
